This is an account of results in patent publication US20150252099A1 (TRELLIS BIOSCIENCE, published 2015).

Where two headings read alike, the source gives them in different places.

The target in test [1] is T1, CMV gB protein (strain AD169), purified (human cytomegalovirus (CMV), strain …, UniProt P06473 32-906, limits assumed). The test is described as follows: cell-based or functional assay.
Test [2] deals with T2, AD-2 peptide NETIYNTTLKYGDV (human cytomegalovirus (CMV)).
T2 construct: also called peptide AD-2; conserved peptide designated AD-2
T2 peptide: NETIYNTTLKYGDV
Description: ELISA binding assay on the AD-2 peptide. (In an ELISA, binding on a coated surface is turned into a signal by an enzyme label.)

Test [3] has as its target T1, CMV gB protein (strain AD169), purified. The test is described as follows: ForteBio biosensor, antibody coupled to the probe, gB in solution.
Description: (§1) In this method, the carboxylic acid groups on Amine Reactive Biosensors were activated with EDC/NHS. […] The gB protein was incubated with the Ab-coated probe and rates of association to and dissociation from the Ab-coated probe were determined by the FortéBio® instrument.
Test [4] has the same target. Description: told with the gB binding kinetics (ForteBio biosensor); reference mAb 4A2. A general note: BLI is a label-free optical method that tracks binding on a fibre tip over time.
Description: as §1
The target is the same in test [5]. The test is described as follows: ForteBio biosensor, antibody coupled to the probe, gB in solution. The source holds these as a separate data set.
Description: as §1

Usually Kd stands for the concentration at which binding is half-saturated. Lower therefore signals higher affinity. Usually koff stands for the rate constant with which the complex falls apart. The low end stands for slow dissociation, the high end for fast dissociation. Broadly, the kon is the rate constant with which the complex forms. Low values mean slow association, high ones fast association.

T1 sequence (P06473 32-906 limits assumed): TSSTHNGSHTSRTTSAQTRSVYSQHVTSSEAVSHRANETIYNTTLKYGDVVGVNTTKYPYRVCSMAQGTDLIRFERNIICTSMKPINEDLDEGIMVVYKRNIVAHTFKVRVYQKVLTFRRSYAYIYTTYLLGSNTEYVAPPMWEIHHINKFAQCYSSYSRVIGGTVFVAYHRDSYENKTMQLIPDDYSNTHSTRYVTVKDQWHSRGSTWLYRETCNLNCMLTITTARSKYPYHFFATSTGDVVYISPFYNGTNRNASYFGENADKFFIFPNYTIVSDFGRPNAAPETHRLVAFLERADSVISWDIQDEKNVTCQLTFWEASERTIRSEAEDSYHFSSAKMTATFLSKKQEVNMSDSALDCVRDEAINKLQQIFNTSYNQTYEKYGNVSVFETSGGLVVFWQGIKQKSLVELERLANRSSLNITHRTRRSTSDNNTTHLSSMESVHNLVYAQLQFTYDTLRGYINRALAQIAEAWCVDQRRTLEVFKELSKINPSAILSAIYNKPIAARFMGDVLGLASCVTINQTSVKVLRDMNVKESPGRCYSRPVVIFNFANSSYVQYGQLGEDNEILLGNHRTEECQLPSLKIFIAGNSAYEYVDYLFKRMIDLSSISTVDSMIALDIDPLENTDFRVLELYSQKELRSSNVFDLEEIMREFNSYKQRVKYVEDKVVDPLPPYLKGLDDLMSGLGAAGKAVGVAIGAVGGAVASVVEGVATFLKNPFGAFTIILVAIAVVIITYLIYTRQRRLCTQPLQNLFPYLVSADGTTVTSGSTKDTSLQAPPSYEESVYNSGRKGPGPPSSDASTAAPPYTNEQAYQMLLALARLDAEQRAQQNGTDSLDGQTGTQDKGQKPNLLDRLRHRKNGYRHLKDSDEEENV

B1: mAb 19B10 (antibody, V domains shown)
VH: QVQLQQSGPGLVKPSQTLSLTCTVSGGSISSGDFCWNWIRQPPGKGLEWIGYICYTGDTYYNPPLNSRVTISVDRSRNQISLRLSSVTAADTAVYYCAREDRRQLHSRPYFYYGLDVWGRGTKVTVSS
VL: EIVMTQSPLSLPVTPGETASISCRSSQSLLHSNGHNYLDWYLQKPGQSPHLLIYLGSIRASGVPDRFSGSGTGTDFTLKISRVEAEDVGVYYCMQALQTPNTFGQGTKLEIRR
notes: Human mAb
Turning to B1, the “IC50 (µg/mL), neutralizing potency” value in test [1] was 0.04 µg/mL. Further, the binding result in test [2] is recorded as “no binding”. Also, the Kd in test [3] was determined as 0.697 nM.

B2: MAB313 (antibody, V domains shown)
VH: QVQLVQSGGGVIQPGRSLTLSCAASGFTFSAYSLHWVRQAPGKGLQWVAVISFDGNFKHFADSLRGRFTISRDNSKNRFYLQMNGLRGEDTAVYYCARDGRAVDGFSGILDFWGQGTLVSVSS
VL: EIVMTQSPATLSLSPGERATLSCRASQSVGRYLTWFQQKPGQAPRLLIYDASERATGIPARFSGSGSGTDFTLTISSLEPEDFAVYYCQQRANWPPLTFGGGTKVEIK
Consider B2, for which the “fold higher potency than mAb 4A2” value in test [4] is roughly 10 fold. Moreover, in test [5], binding was characterised by a dissociation constant (Kd) of 0.7 nM, the off-rate constant (koff) stood at 1.2e-05 s⁻¹ and the kon turned out to be 17000 M⁻¹ s⁻¹.

B3: MAB338 (antibody, V domains shown)
VH: QVQLVESGGGVVQPGRSLRLSCSGSGFTFSDYNLHWVRQAPGKGLEWVAVISIDGTNKHHADSVKGRFTISRDNSKNTVNLEMSRLKAEDTAVYYCVRDGRSIGGYSGIFDPWGQGTLVTVSS
VL: EIVLTQSPATLSLSPGERATLSCRASQSVDRYLAWYQQKPGQAPRLLIYDASQRATGIPARFSGSGSGTDFTLAISSLEPEDVAVYYCQQRSNWPPLTFGGGTKIEIK
With B3, in test [4], the “fold higher potency than mAb 4A2” value is roughly 10 fold.

B4: MAB345 (antibody, V domains shown)
VH: QVQLVESGGGVVQPGRSLRLSCAASGFTFSDYNMHWVRQAPGKGLEWVAVISIDGTYKYSADSVAGRFSLSRDNSKNTLYLQMNSLRPDDTAIYYCARDGRSVGGFSGILDPWGQGTLVTVSS
VL: EIVMTQSPATLSLSPGDRATLSCRASQSVGSYLAWYQQKPGQAPRLLMYDSSVRATGIPARFSGSGSGTDFTLTISSLEPEDFAVYYCQQRNNWPPLTFGGGTKVEIK
notes: also called ATCC PTA-121705
B4: in test [5], the Kd stood at 2.3 nM, the koff turned out to be 3.3e-05 s⁻¹ and the kon worked out at 14000 M⁻¹ s⁻¹.

B5: MAB310 (antibody, V domains shown)
VH: QVQLVQSGGGVVQPGTSLRLSCAASGFMFNTYNMHWVRQAPGKGLEWVAVISNDGTYKYSADSLKGRFSISRDNSKNTLYLHMNSLRPDDTAVYYCARDGRSVGGFSGILDPWGQGTLVTVSS
VL: EIVLTQSPATLSLSPGDRATLSCRASQTVGRYLAWYQQKPGQAPRLLIYDASDRATGISARFSGSGSGTDFTLTISSLEPEDFAVYYCQQRSNWPPLTFGGGTKVEIKR
Take B5: the “fold higher potency than mAb 4A2” value in test [4] was roughly 10 fold. Further, in test [5], the dissociation constant Kd was found to be 0.8 nM, the koff worked out at 1.2e-05 s⁻¹ and the on-rate (kon) is 16000 M⁻¹ s⁻¹.

B6: mAb 4A2 (antibody, V domains shown)
VH: QVLLEESGGGVVQPGRSLRLSCAGSGFTFNRHGIHWVRQAPGKGLEWVTVISSDGANQQYAESVKGRFIISRDNSKNTVYLEMNSLRNDDTGVYFCARDGRCEGERCYSGVTDFWGQGTLV
VL: EIVLTQSPATLSLSPGERATLSCRASQNIGGYLAWFQQKAGQAPRLLIYDASIRATGIPARFSGSGSGTDFTLTISSLEPEDFAVYYCQQRNSWPPLTFG
notes: Human mAb
In the case of B6, the “IC50 (µg/mL), neutralizing potency” value in test [1] was determined as 0.02 µg/mL. Binding in test [3] was characterised by a dissociation constant (Kd) of 0.168 nM.
